Paper PMC5953937

Target: lipin 1 (UniProt Q14693)
Assay: co-immunoprecipitation (presumed)
Details: reference: wild-type Tip60; sites S86

## Tip60 (from UniProt Q92993) S86A-Tip60
  binding against the reference: weaker
